Data published in the Immune Epitope Database (IEDB).
Each block holds one sequence with its values, some of them ahead of it.

Experiments:
HLA-B*07:02 [1] = test: IEDB peptide-MHC binding, purified MHC/competitive/radioactivity; ≥ and ≤ were set here for values at or beyond the usual limits of such assays
HLA-B*35:01 [2] = test: as above
HLA-B*51:01 [3] = test: as above
HLA-B*53:01 [4] = test: as above
HLA-B*54:01 [5] = test: as above
HLA-B*51:01 [6] = test: IEDB peptide-MHC binding, purified MHC/competitive/radioactivity; filed as Kd, often an IC50 or EC50 that approximates it; ≥ and ≤ were set here for values at or beyond the usual limits of such assays
HLA-B*35:01 [7] = test: as above
HLA-B*53:01 [8] = test: as above
HLA-B*54:01 [9] = test: as above
HLA-B*07:02 [10] = test: as above
[11] = source organism: Human immunodeficiency virus 1
[12] = source organism: human papillomavirus 18
[13] = source organism: Human T-cell leukemia virus type I
[14] = source organism: Human T-cell lymphotrophic virus type 1 (Caribbean isolate)

Sequence: FPVRPQVPI
IC50 (HLA-B*07:02 [1]; [11]): 22.4 nM
IC50 (HLA-B*35:01 [2]; [11]): 118 nM
IC50 (HLA-B*51:01 [3]; [11]): 14.8 nM
IC50 (HLA-B*53:01 [4]; [11]): 30.2 nM
IC50 (HLA-B*54:01 [5]; [11]): 1.6 nM

Sequence: FPVRPQVPM
IC50 (HLA-B*07:02 [1]; [11]): 3.8 nM
IC50 (HLA-B*35:01 [2]; [11]): 13 nM
IC50 (HLA-B*53:01 [4]; [11]): 32.5 nM
IC50 (HLA-B*54:01 [5]; [11]): 79 nM
Kd (HLA-B*51:01 [6]; [11]): 1300 nM

IC50 (HLA-B*07:02 [1]; source organism: Homo sapiens): 60 nM
Kd (HLA-B*35:01 [7]; source organism: Homo sapiens): ≥ 25000 nM
Kd (HLA-B*51:01 [6]; source organism: Homo sapiens): 5500 nM
Kd (HLA-B*53:01 [8]; source organism: Homo sapiens): ≥ 25 µM
Kd (HLA-B*54:01 [9]; source organism: Homo sapiens): ≥ 25 µM
Sequence: IPLYRNGDF

IC50 (HLA-B*07:02 [1]; source organism: Homo sapiens): 68 nM
IC50 (HLA-B*51:01 [3]; source organism: Homo sapiens): 32 nM
IC50 (HLA-B*53:01 [4]; source organism: Homo sapiens): 465 nM
IC50 (HLA-B*54:01 [5]; source organism: Homo sapiens): 38 nM
Kd (HLA-B*35:01 [7]; source organism: Homo sapiens): 2940 nM
Sequence: LPSIPVHPI

IC50 (HLA-B*51:01 [3]; source organism: Homo sapiens): 39 nM
IC50 (HLA-B*54:01 [5]; source organism: Homo sapiens): 333 nM
Kd (HLA-B*07:02 [10]; source organism: Homo sapiens): 1530 nM
Kd (HLA-B*35:01 [7]; source organism: Homo sapiens): 2120 nM
Kd (HLA-B*53:01 [8]; source organism: Homo sapiens): 15.5 µM
Sequence: TPAEVSIVV

Sequence: FPVRPQVPT
IC50 (HLA-B*07:02 [1]; [11]): 380 nM
IC50 (HLA-B*35:01 [2]; [11]): 26 nM
IC50 (HLA-B*54:01 [5]; [11]): 1.8 nM
Kd (HLA-B*51:01 [6]; [11]): 1300 nM
Kd (HLA-B*53:01 [8]; [11]): 1.3 µM

IC50 (HLA-B*07:02 [1]; source organism: Homo sapiens): 833 nM
IC50 (HLA-B*35:01 [2]; source organism: Homo sapiens): 379 nM
Kd (HLA-B*51:01 [6]; source organism: Homo sapiens): 1900 nM
Kd (HLA-B*53:01 [8]; source organism: Homo sapiens): 3.44 µM
Kd (HLA-B*54:01 [9]; source organism: Homo sapiens): ≥ 25 µM
Sequence: SPSCPLERF

Sequence: FPVRPQVPC
IC50 (HLA-B*07:02 [1]; [11]): 380 nM
IC50 (HLA-B*54:01 [5]; [11]): 65.8 nM
Kd (HLA-B*35:01 [7]; [11]): 1300 nM
Kd (HLA-B*51:01 [6]; [11]): 1300 nM
Kd (HLA-B*53:01 [8]; [11]): 1.3 µM

Sequence: SPLGERLEV
IC50 (HLA-B*07:02 [1]; [12]): 42 nM
Kd (HLA-B*35:01 [7]; [12]): ≥ 25000 nM
Kd (HLA-B*51:01 [6]; [12]): ≥ 25000 nM
Kd (HLA-B*53:01 [8]; [12]): ≥ 25 µM
Kd (HLA-B*54:01 [9]; [12]): 9.09 µM

Sequence: LPTTLFQPY
IC50 (HLA-B*07:02 [1]; [13]): 423 nM
IC50 (HLA-B*51:01 [3]; [13]): 42 nM
IC50 (HLA-B*54:01 [5]; [13]): 0.83 nM
Kd (HLA-B*35:01 [7]; [13]): 1560 nM
Kd (HLA-B*53:01 [8]; [13]): 11.6 µM

IC50 (HLA-B*51:01 [3]; source organism: Homo sapiens): 21 nM
IC50 (HLA-B*53:01 [4]; source organism: Homo sapiens): 16 nM
Kd (HLA-B*07:02 [10]; source organism: Homo sapiens): ≥ 25000 nM
Kd (HLA-B*35:01 [7]; source organism: Homo sapiens): 4240 nM
Kd (HLA-B*54:01 [9]; source organism: Homo sapiens): 3.85 µM
Sequence: FPPEGVSIW

Sequence: FAVRPQVPL
IC50 (HLA-B*35:01 [2]; [11]): 148 nM
IC50 (HLA-B*51:01 [3]; [11]): 591 nM
Kd (HLA-B*07:02 [10]; [11]): 1300 nM
Kd (HLA-B*53:01 [8]; [11]): 6.17 µM
Kd (HLA-B*54:01 [9]; [11]): 4.25 µM

Sequence: QPFILYAHI
IC50 (HLA-B*51:01 [3]; [12]): 26 nM
Kd (HLA-B*07:02 [10]; [12]): ≥ 25000 nM
Kd (HLA-B*35:01 [7]; [12]): ≥ 25000 nM
Kd (HLA-B*53:01 [8]; [12]): 5.47 µM
Kd (HLA-B*54:01 [9]; [12]): 2.94 µM

IC50 (HLA-B*07:02 [1]; source organism: Homo sapiens): 68 nM
IC50 (HLA-B*35:01 [2]; source organism: Homo sapiens): 103 nM
IC50 (HLA-B*51:01 [3]; source organism: Homo sapiens): 6.2 nM
IC50 (HLA-B*53:01 [4]; source organism: Homo sapiens): 198 nM
Kd (HLA-B*54:01 [9]; source organism: Homo sapiens): 1 µM
Sequence: CPLERFAEL

Sequence: WPLLPHVIF
IC50 (HLA-B*07:02 [1]; [14]): 367 nM
IC50 (HLA-B*35:01 [2]; [14]): 180 nM
IC50 (HLA-B*51:01 [3]; [14]): 262 nM
IC50 (HLA-B*54:01 [5]; [14]): 63 nM
Kd (HLA-B*53:01 [8]; [14]): 1.01 µM

Sequence: FPVRPQVPQ
IC50 (HLA-B*07:02 [1]; [11]): 380 nM
IC50 (HLA-B*35:01 [2]; [11]): 394 nM
IC50 (HLA-B*54:01 [5]; [11]): 79 nM
Kd (HLA-B*51:01 [6]; [11]): 1300 nM
Kd (HLA-B*53:01 [8]; [11]): 1.3 µM

IC50 (HLA-B*07:02 [1]; source organism: Homo sapiens): 902 nM
IC50 (HLA-B*51:01 [3]; source organism: Homo sapiens): 28 nM
IC50 (HLA-B*54:01 [5]; source organism: Homo sapiens): 476 nM
Kd (HLA-B*35:01 [7]; source organism: Homo sapiens): ≥ 25000 nM
Kd (HLA-B*53:01 [8]; source organism: Homo sapiens): ≥ 25 µM
Sequence: EPGPVTAQV
